T1: GST-ANI-1^C-term (681-1159 AA) (C. elegans, UniProt Q9XTT4 681-1159)
T1 construct: ANI-1 (anillin homolog), C. elegans, residues 681-1159 comprising the RBD, C2 region and PH domain; Cloned into pGEX-4T; used on the beads directly in the pull-down; also called GST-tagged C-terminus of ANI-1; anillin C-terminus; source: E. coli BL21 (DE3), purified on Glutathione Sepharose 4B beads
T1 sequence (looked up): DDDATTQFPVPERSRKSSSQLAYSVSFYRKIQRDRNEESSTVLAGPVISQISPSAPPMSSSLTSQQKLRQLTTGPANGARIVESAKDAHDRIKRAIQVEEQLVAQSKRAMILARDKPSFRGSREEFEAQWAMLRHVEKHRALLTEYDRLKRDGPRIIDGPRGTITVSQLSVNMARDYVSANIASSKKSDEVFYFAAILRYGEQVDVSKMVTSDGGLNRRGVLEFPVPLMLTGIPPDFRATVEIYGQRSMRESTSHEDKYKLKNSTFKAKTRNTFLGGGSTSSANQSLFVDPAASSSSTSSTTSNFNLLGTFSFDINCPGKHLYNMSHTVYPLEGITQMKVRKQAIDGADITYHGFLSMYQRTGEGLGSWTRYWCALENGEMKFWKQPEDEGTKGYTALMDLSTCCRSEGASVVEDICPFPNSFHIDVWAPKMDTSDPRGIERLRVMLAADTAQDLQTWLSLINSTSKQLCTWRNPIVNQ

T2: GST-ANI-1^Link+C-term (460-1159 AA) (C. elegans, UniProt Q9XTT4 460-1159)
T2 construct: ANI-1 (anillin homolog), C. elegans, residues 460-1159: linker region, RBD, C2 region and PH domain; Cloned into pGEX-4T; used on the beads directly in the pull-down; also called protein consisting of the linker region and C-terminus; source: E. coli BL21 (DE3), purified on Glutathione Sepharose 4B beads
T2 sequence (looked up): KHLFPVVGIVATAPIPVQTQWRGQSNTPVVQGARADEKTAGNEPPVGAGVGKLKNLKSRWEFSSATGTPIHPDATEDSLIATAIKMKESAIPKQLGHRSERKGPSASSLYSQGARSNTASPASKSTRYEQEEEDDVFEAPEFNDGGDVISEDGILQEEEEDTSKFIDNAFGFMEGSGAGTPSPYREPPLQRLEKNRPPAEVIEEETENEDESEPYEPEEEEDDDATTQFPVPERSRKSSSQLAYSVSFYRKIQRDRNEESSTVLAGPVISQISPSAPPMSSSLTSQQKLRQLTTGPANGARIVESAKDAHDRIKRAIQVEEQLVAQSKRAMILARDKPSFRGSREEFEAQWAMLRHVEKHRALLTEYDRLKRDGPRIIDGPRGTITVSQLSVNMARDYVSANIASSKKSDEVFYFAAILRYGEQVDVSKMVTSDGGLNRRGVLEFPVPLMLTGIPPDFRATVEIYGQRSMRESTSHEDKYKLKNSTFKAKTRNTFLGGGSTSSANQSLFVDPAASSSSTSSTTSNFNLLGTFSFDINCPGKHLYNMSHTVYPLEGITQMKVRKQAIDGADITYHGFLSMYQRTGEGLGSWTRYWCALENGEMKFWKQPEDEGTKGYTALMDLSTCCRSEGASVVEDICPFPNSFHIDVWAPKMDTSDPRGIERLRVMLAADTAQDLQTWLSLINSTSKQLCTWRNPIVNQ


What was measured:
[1] = target: T1, GST-ANI-1^C-term (681-1159 AA); assay: pull-down; ~4 μg GST-ANI-1 fragment on Glutathione Sepharose beads mixed with ~4 μg purified 10xHis-RHO-1 in 300 μl binding buffer (20 mM Tris pH 7.4, 150 mM NaCl, 5 mM MgCl2, 0.1% Triton X-100, 1 mM DTT) with 1 mM GTP, 4°C, 1.5 h; bound RHO-1 detected by anti-His immunoblot; conditions: both partners purified
[2] = target: T2, GST-ANI-1^Link+C-term (460-1159 AA); assay: as above; conditions: both partners purified

Binder | binding result [1] | binding result [2]
10xHis-RHO-1^WT (wild type RHO-1, 1-188 AA) (domain or fragment, RHO-1 (RhoA in humans), C. elegans, residues 1-188 (without the CAAX motif), amplified from cDNA; Cloned into pET-19b; also called His-tagged RHO-1; RhoA; source: E. coli BL21 (DE3), purified (Ni-NTA)) not shown | binds | –
10xHis-RHO-1^Q63L (constitutively active RHO-1, 1-188 AA) (domain or fragment, RHO-1 (RhoA in humans), C. elegans, residues 1-188, with Q63L made by site-directed mutagenesis of the wild type construct; Cloned into pET-19b; source: E. coli BL21 (DE3), purified (Ni-NTA)) not shown | binds | binds
